Where no end group is shown, it is not given here.
B1: Phage-1980 (peptide)
peptide: LDKWCIPPWMCYSI
notes: tested as crude clonal phage supernatant
B2: Phage-2009 (peptide)
peptide: EFVKCVPAWMCEWT
modifications: cysteine pairing not given here; also: fused to phage pIII, pIII sequence and linker not given here
notes: Peptide-180 library clone
B3: Phage-2005 (peptide)
peptide: VTKWCIPEWMCEYI
modifications: cysteine pairing not given here; also: fused to phage pIII, pIII sequence and linker not given here
notes: Peptide-180 library clone
B4: Phage-1972 (peptide)
peptide: PWHWCIPEWMCAEY
notes: as for B1
B5: Phage-1978 (peptide)
peptide: SERWCIPTWMCQET
notes: as for B1
B6: Phage-1975 (peptide)
peptide: FDNWCKPSWMCAGL
notes: as for B1
B7: Phage-2008 (peptide)
peptide: HPKWCTPAWMCVML
modifications: cysteine pairing not given here; also: fused to phage pIII, pIII sequence and linker not given here
notes: Peptide-180 library clone
B8: Phage-1976 (peptide)
peptide: TMHWCIPQWMCETG
notes: as for B1
B9: Phage-1973 (peptide)
peptide: FDKWCIPEWMCAVL
notes: as for B1
B10: Phage-1969 (peptide)
peptide: VEKWCKPTWMCEMV
notes: as for B1
B11: Phage-1970 (peptide)
peptide: EFKWCTPSWMCAHL
notes: as for B1
B12: Phage-1979 (peptide)
peptide: LPKWCTPEWMCIGF
notes: as for B1
B13: Phage-1971 (peptide)
peptide: VMNWCTPVWMCQGF
notes: as for B1
B14: Phage-1974 (peptide)
peptide: LVKWCIPEWMCEVL
notes: as for B1
B15: Phage-1977 (peptide)
peptide: MAQWCTPAWMCSGF
notes: as for B1
B16: Phage-2011 (peptide)
peptide: DTHMCRPLWMCTGL
modifications: cysteine pairing not given here; also: fused to phage pIII, pIII sequence and linker not given here
notes: Peptide-180 library clone
B17: Phage-2010 (peptide)
peptide: LQKLCIPEWMCLNM
modifications: cysteine pairing not given here; also: fused to phage pIII, pIII sequence and linker not given here
notes: Peptide-180 library clone
B18: Phage-2007 (peptide)
peptide: QDMWCIPPWMCWAQ
modifications: cysteine pairing not given here; also: fused to phage pIII, pIII sequence and linker not given here
notes: Peptide-180 library clone
B19: Phage-1966 (peptide)
peptide: WDKWCRPAWMCEST
notes: as for B1
B20: Phage-1967 (peptide)
peptide: DVKMCIPAWMCSFD
notes: as for B1
B21: Phage-2006 (peptide)
peptide: LPHWCTPLWMCEGF
modifications: cysteine pairing not given here; also: fused to phage pIII, pIII sequence and linker not given here
notes: Peptide-180 library clone
B22: Phage-2012 (peptide)
peptide: GEKWCIPPWMCITN
notes: Peptide-180 library clone, tested as clonal phage supernatant
B23: Phage-1968 (peptide)
peptide: YIKWCTPSWMCEAS
notes: as for B1
B24: Phage-2013 (peptide)
peptide: LEKWCIPAWMCEVF
notes: as for B22

Columns and labels:
[1] = target: T1, Anti-PSMA Fab (SEQ ID NOs: 19, 20); assay: phage binding ELISA; biotinylated PSMA Fab captured on neutravidin plate, clonal phage supernatant, anti-M13 HRP detection
T1 construct: Biotinylated and captured on neutravidin coated plates in the phage ELISA; also called 006 PSMA Fab
Experimental: (§1) Clonal phage were harvested as crude supernatants and screened via standard ELISAs. […] Prior to the addition of clonal phage. wells were incubated with blocking buffer and PSMA antigen or blocking buffer alone. Without washing or aspirating, clonal phage supernatants were then added to the wells and incubated for a short time. Wells were then washed followed by detection of bound phage using a horse radish conjugated anti-M13 antibody.

[2] = target: T1, Anti-PSMA Fab (SEQ ID NOs: 19, 20); assay: phage binding ELISA on captured PSMA Fab; wells pre-incubated with PSMA antigen as competitor
Experimental: as §1

[3] = target: T2, Anti-PSMA Fab (SEQ ID NOs: 19, 20); assay: phage ELISA; biotinylated PSMA Fab on neutravidin plate pre-incubated with PSMA antigen (competitor), anti-M13 HRP detection
T2 construct: In the phage ELISA the Fab was biotinylated and captured on neutravidin coated plates; also called 006 PSMA Fab
Experimental: as §1

[4] = target: T2, Anti-PSMA Fab (SEQ ID NOs: 19, 20); assay: phage ELISA; biotinylated PSMA Fab on neutravidin plate, clonal phage supernatant, anti-M13 HRP detection;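 also: wells preincubated with PSMA antigen in blocking buffer or with blocking buffer only before clonal phage were added for a short incubation, then bound phage detected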
Experimental: as §1

[5] = target: T3, Anti-PSMA Fab (SEQ ID NOs: 19, 20); assay: phage binding ELISA; biotinylated PSMA Fab on neutravidin plate, clonal phage supernatant, anti-M13 HRP detection;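 also: wells were preincubated with blocking buffer either containing PSMA antigen or without it before crude phage supernatant was added, briefly incubated, then washed prior to detection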
T3 construct: Biotinylated and captured on neutravidin coated plates in the phage ELISA; also called 006 PSMA Fab
Experimental: as §1

[6] = target: T3, Anti-PSMA Fab (SEQ ID NOs: 19, 20); assay: phage binding ELISA; PSMA Fab on plate pre-incubated with PSMA antigen as competitor, anti-M13 HRP detection;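 also: crude clonal phage supernatants added without washing to wells preincubated with PSMA in blocking buffer, compared with wells receiving blocking buffer only, then bound phage detected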
Experimental: as §1

[7] = target: T4, Anti-PSMA Fab (SEQ ID NOs: 19, 20); assay: phage binding ELISA; Fab-coated wells pre-incubated with PSMA antigen as competitor, anti-M13-HRP detection;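 also: clonal phage supernatants screened, with reference wells given blocking buffer only (no PSMA antigen) before phage were added for a brief incubation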
T4 construct: Biotinylated PSMA Fab captured on neutravidin coated plates in the phage ELISA; also called 006 PSMA Fab
Experimental: as §1

[8] = target: T4, Anti-PSMA Fab (SEQ ID NOs: 19, 20); assay: phage binding ELISA; biotinylated PSMA Fab on neutravidin plate, clonal phage, anti-M13-HRP detection
Experimental: as §1

Row | Binder | Anti-PSMA Fab (SEQ ID NOs: 19, 20) signal [1] | Anti-PSMA Fab signal in the presence of PSMA [2] | Phage binding ELISA, Anti-PSMA Fab signal in the presence of PSMA [3] | Phage binding ELISA, Anti-PSMA Fab signal [4] | other results
1 | B1 | 1.89 | 0.0602 | – | – | –
2 | EVKWCTPAWMCEGF (cysteine pairing not given here; also: displayed as fusion to phage pIII, Peptide-180 library clone) [Phage-2001] | – | – | 0.0605 | 1.85 | –
3 | B2 | – | – | 0.0768 | 1.84 | –
4 | LEKLCIPSWMCEGM (cysteine pairing not given here; also: displayed as fusion to phage pIII, Peptide-180 library clone) [Phage-2002] | – | – | 0.0942 | 1.85 | –
5 | LEMWCVPAWMCSGF [Phage-1964] | – | – | – | – | Phage binding ELISA, Anti-PSMA Fab (SEQ ID NOs: 19, 20) signal [5]: 1.91; Phage binding ELISA, Anti-PSMA Fab signal in the presence of PSMA [6]: 0.0771
6 | B3 | – | – | 0.0658 | 1.85 | –
7 | B4 | 1.9 | 0.083 | – | – | –
8 | B5 | 1.89 | 0.0819 | – | – | –
9 | B6 | 1.89 | 0.0863 | – | – | –
10 | LVKWCTPAWMCEFI [Phage-1963] | – | – | – | – | Phage binding ELISA, Anti-PSMA Fab (SEQ ID NOs: 19, 20) signal [5]: 1.91; Phage binding ELISA, Anti-PSMA Fab signal in the presence of PSMA [6]: 0.0856
11 | B7 | – | – | 0.0691 | 1.85 | –
12 | B8 | 1.89 | 0.25 | – | – | –
13 | B9 | 1.9 | 0.0682 | – | – | –
14 | B10 | 1.9 | 0.0976 | – | – | –
15 | B11 | 1.9 | 0.128 | – | – | –
16 | B12 | 1.89 | 0.113 | – | – | –
17 | B13 | 1.9 | 0.115 | – | – | –
18 | B14 | 1.9 | 0.0751 | – | – | –

Row | Binder | Anti-PSMA Fab (SEQ ID NOs: 19, 20) signal [1] | Anti-PSMA Fab signal in the presence of PSMA [2] | Phage binding ELISA, Anti-PSMA Fab signal in the presence of PSMA [3] | Phage binding ELISA, Anti-PSMA Fab signal [4] | other results
19 | B15 | 1.89 | 0.0721 | – | – | –
20 | NFHLCTPQWMCTGF (cysteine pairing not given here; also: displayed as fusion to phage pIII, Peptide-180 library clone) [Phage-1997] | – | – | 0.0973 | 1.86 | –
21 | B16 | – | – | 0.0778 | 1.84 | –
22 | HEMWCRPAWMCDGF (cysteine pairing not given here; also: displayed as fusion to phage pIII, Peptide-180 library clone) [Phage-2000] | – | – | 0.0635 | 1.85 | –
23 | FEKWCVPIWMCRDS (cysteine pairing not given here; also: displayed as fusion to phage pIII, Peptide-180 library clone) [Phage-2003] | – | – | 0.161 | 1.85 | –
24 | B17 | – | – | 0.0655 | 1.84 | –
25 | B18 | – | – | 0.126 | 1.85 | –
26 | IPKWCTPAWMCESM (cysteine pairing not given here; also: displayed as fusion to phage pIII, Peptide-180 library clone) [Phage-1999] | – | – | 0.0609 | 1.86 | –
27 | B19 | 1.91 | 0.0851 | – | – | –
28 | B20 | 1.91 | 0.0712 | – | – | –
29 | B21 | – | – | 0.0658 | 1.85 | –
30 | IDKWCIPAWMCVSN (cysteine pairing not given here; also: displayed as fusion to phage pIII, Peptide-180 library clone) [Phage-1998] | – | – | 0.0815 | 1.86 | –
31 | MVKWCKPAWMCDVI [Phage-1965] | – | – | – | – | Phage binding ELISA, Anti-PSMA Fab (SEQ ID NOs: 19, 20) signal [5]: 1.91; Phage binding ELISA, Anti-PSMA Fab signal in the presence of PSMA [6]: 0.078
32 | B22 | – | – | – | – | Anti-PSMA Fab signal in the presence of PSMA [7]: 0.0697; Anti-PSMA Fab (SEQ ID NOs: 19, 20) signal [8]: 1.84
33 | IDNWCRPLWMCHGF (cysteine pairing not given here; also: displayed as fusion to phage pIII, Peptide-180 library clone) [Phage-2004] | – | – | 0.0907 | 1.85 | –
34 | B23 | 1.9 | 0.113 | – | – | –
35 | B24 | – | – | – | – | Anti-PSMA Fab signal in the presence of PSMA [7]: 0.0967; Anti-PSMA Fab (SEQ ID NOs: 19, 20) signal [8]: 1.84

From patent publication US20260242478A1 (published 2026)
